Numbered stars: 1 amine (or outer) side, 2 acyl side, 3 side chain; on linkers, the order of the positions; unused ones are H or OH. Bridge positions count the residues as written; N and C are the ends. Ends that are not written are not given here. acetyl = acetyl (haloacetyl before ring closure) on the side-chain amine, O=C(C[*:1])[*:2]; COCH2 = acetyl group that carries the bridge
Biological target: T1, Recombinant Human FGFR2 alpha (IIIc) Fc Chimera Protein (Homo sapiens, UniProt P21802)
T1 construct: Fc (chimera); purchased R&D systems 712-FR-050
T1 sequence (P21802 with tags, fused parts or gaps limits assumed): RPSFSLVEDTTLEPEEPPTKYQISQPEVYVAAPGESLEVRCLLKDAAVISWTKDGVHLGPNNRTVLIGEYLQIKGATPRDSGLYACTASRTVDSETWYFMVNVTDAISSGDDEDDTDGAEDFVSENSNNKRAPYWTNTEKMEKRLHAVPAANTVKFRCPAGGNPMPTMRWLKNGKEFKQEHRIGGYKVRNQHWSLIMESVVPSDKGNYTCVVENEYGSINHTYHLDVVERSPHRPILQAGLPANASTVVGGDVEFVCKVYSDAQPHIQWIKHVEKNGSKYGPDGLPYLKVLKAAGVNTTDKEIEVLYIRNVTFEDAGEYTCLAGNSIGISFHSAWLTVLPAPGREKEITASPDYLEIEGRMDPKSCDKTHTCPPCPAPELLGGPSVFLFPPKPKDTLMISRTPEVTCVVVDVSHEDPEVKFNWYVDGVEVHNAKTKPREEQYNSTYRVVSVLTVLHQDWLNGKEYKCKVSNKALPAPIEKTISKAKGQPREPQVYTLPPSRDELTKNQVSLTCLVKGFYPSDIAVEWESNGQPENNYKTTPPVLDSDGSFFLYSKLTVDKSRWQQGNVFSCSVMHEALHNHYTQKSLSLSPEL
Experiment: ELISA binding affinity of enzymatically synthesized peptide to FGFR
Conditions: ELISA luminescence signal at 10 nmol/L peptide, SEQ ID NO: 47 at 10 nmol/L standardized to 1; enzyme synthesis product
Method in brief: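 FGFR2 alpha (IIIc) Fc chimera (5 ng/well) was immobilized, and Myc-tagged peptide was bound 3 h at room temperature, then detected with anti-Myc antibody (2 h) and chemiluminescent substrate. Signal was corrected against FGFR-free wells. Score A–D was the luminescence at 10 nmol/L peptide, normalized to cyclic peptide SEQ ID NO: 47.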

Substance	Evaluation result of binding affinity to FGFR
190 (YCEENQLDPEQYQYFIYFK(COCH2)Y; thioether 2-19 (inferred)) [compound 190]	C (0.1 or more and less than 0.5)
38 (QCSYLYQYVFERYKVTVPK(COCH2)D; thioether 2-19 (inferred)) [compound 38]	A (0.7 or more)
173 (YCEWNYLDPEQYQYFIYFK(COCH2)Y; thioether 2-19 (inferred)) [compound 173]	A (0.7 or more)
51 (VCHSNFLSAVQYAYFYQYKH; Description of Artificial Sequence: Cyclic peptide) [compound 51]	A (0.7 or more)
228 (YCEENYLDNEQYQYFIYFK(COCH2)Y; thioether 2-19 (inferred)) [compound 228]	A (0.7 or more)
229 (YCEENYLDQEQYQYFIYFK(COCH2)Y; thioether 2-19 (inferred)) [compound 229]	A (0.7 or more)
245 (YCEENYLDPQQYQYFIYFK(COCH2)Y; thioether 2-19 (inferred)) [compound 245]	A (0.7 or more)
67 (KCPQNFINPVQWRYFQHYKA; not fully specified; also: cyclic peptide, ring places not shown) [compound 67]	A (0.7 or more)
81 (SCPQNFINPVQWRYFQHYK(COCH2)N; thioether 2-19 (inferred)) [compound 81]	A (0.7 or more)
117 (LCRNYINPQQWRYFALYK(COCH2)N; thioether 2-18 (inferred)) [compound 117]	A (0.7 or more)
174 (YCENNYLDPEQYQYFIYFK(COCH2)Y; thioether 2-19 (inferred)) [compound 174]	A (0.7 or more)
235 (YCEENYLDHEQYQYFIYFK(COCH2)Y; thioether 2-19 (inferred)) [compound 235]	A (0.7 or more)
110 (QCQTDHQQQLYFIYQYLQK(COCH2)I; thioether 2-19 (inferred)) [compound 110]	C (0.1 or more and less than 0.5)
107 (YCTDNYIDDIQFWYLFLYK(COCH2)Q; thioether 2-19 (inferred)) [compound 107]	B (0.5 or more and less than 0.7)
60 (KCPQNFINAVQWRYFQHYK(COCH2)N; thioether 2-19 (inferred)) [compound 60]	A (0.7 or more)
209 (YCEENYLIPEQYQYFIYFK(COCH2)Y; thioether 2-19 (inferred)) [compound 209]	C (0.1 or more and less than 0.5)
231 (YCEENYLDTEQYQYFIYFK(COCH2)Y; thioether 2-19 (inferred)) [compound 231]	A (0.7 or more)
104 (QCPQNFINPVQYRYFQHYK(COCH2)N; thioether 2-19 (inferred)) [compound 104]	B (0.5 or more and less than 0.7)
180 (YCEHNYLDPEQYQYFIYFK(COCH2)Y; thioether 2-19 (inferred)) [compound 180]	A (0.7 or more)
65 (KCPQNFINPVQWRYFAHYK(COCH2)N; thioether 2-19 (inferred)) [compound 65]	A (0.7 or more)
175 (YCEQNYLDPEQYQYFIYFK(COCH2)Y; thioether 2-19 (inferred)) [compound 175]	A (0.7 or more)
127 (YCPYNFYNIIQFHYFLTYK(COCH2)T; thioether 2-19 (inferred)) [compound 127]	A (0.7 or more)
150 (HCEENYLDPEQYQYFIYFK(COCH2)Y; thioether 2-19 (inferred)) [compound 150]	A (0.7 or more)
37 (QCQLNYWDDLQFTYYLQYK(COCH2)V; thioether 2-19) [compound 37]	A (0.7 or more)

Other lines, results leading:

Evaluation result of binding affinity to FGFR	Substance
A (0.7 or more)	350 (YCEENMLDPEQYQYFIYFK(COCH2)Y; thioether 2-19) [compound 350]
C (0.1 or more and less than 0.5)	390 (YCEENYLDPEQYQYFHYFK(COCH2)R; thioether 2-19 (inferred)) [compound 390]
A (0.7 or more)	342 (YCEENYLDPKQYQYFIYFK(COCH2)Y; thioether 2-19) [compound 342]
C (0.1 or more and less than 0.5)	361 (QCYYLYWYLYK(COCH2)I; thioether 2-11) [compound 361]
C (0.1 or more and less than 0.5)	431 (CHENYLDPEQYQYFHYFK(COCH2); thioether 1-18 via acetyl) [compound 431]
A (0.7 or more)	266 (YCEENYLDPEQYTYFIYFK(COCH2)Y; thioether 2-19) [compound 266]
B (0.5 or more and less than 0.7)	386 (RCHHNFHHARQWGFFHHYK(COCH2)R; thioether 2-19 (inferred)) [compound 386]
A (0.7 or more)	330 (YCEENYLDPAQYQYFIYFK(COCH2)Y; thioether 2-19 (inferred)) [compound 330]
C (0.1 or more and less than 0.5)	357 (YCEENYLDPEQYQMFIYFK(COCH2)Y; thioether 2-19) [compound 357]
C (0.1 or more and less than 0.5)	372 (QCEQLKYLYQYVLK(COCH2)L; thioether 2-14) [compound 372]
C (0.1 or more and less than 0.5)	401 (QCQFLNYVNHVQWHYFWVFK(COCH2)S; thioether 2-20 (inferred)) [compound 401]
A (0.7 or more)	351 (YCEENYMDPEQYQYFIYFK(COCH2)Y; thioether 2-19) [compound 351]
A (0.7 or more)	280 (YCEENYLDPEQYQYFFYFK(COCH2)Y; thioether 2-19) [compound 280]
A (0.7 or more)	302 (YCEENYLDPEQYQYFIDFK(COCH2)Y; thioether 2-19 (inferred)) [compound 302]
A (0.7 or more)	314 (YCEENYLDPEQYQYFIYFK(COCH2)N; thioether 2-19 (inferred)) [compound 314]
C (0.1 or more and less than 0.5)	277 (YCEENYLDPEQYQYFGYFK(COCH2)Y; thioether 2-19) [compound 277]
A (0.7 or more)	319 (YCEENYLDPEQYQYFIYFK(COCH2)E; thioether 2-19 (inferred)) [compound 319]
A (0.7 or more)	360 (YCEENYLDPEQYQYFIYFK(COCH2)M; thioether 2-19) [compound 360]
A (0.7 or more)	281 (YCEENYLDPEQYQYFYYFK(COCH2)Y; thioether 2-19) [compound 281]
A (0.7 or more)	353 (YCEENYLDMEQYQYFIYFK(COCH2)Y; thioether 2-19) [compound 353]
